Assay results from patent US20070042353A1, “HCV polymerase suitable for crystal structure analysis and method for using the enzyme” (Japan Tobacco Inc., priority 1999, published 2007).
Where no end group is shown, it is not given here.

Experiments:
HCV polymerase = experiment: Measurement of the HCV polymerase activity (3H-UTP incorporation into template RNA); format: biochemical, HCV-BK strain; conditions: radioactivity of the NS5B591 enzyme reaction as standard; polymerase 1 μg/ml, 25° C., 90 min
Text: The DNA fragment (148 bp) containing polyU and 3′ X sequence was completely synthesized using synthetic primers designed based on the sequence of the 3′ untranslational region of the HCV genome, and cloned into plasmid pBluescript SK II (+) (Stratagene). The cDNA encoding the full length NS5B prepared in the same manner as in Example 1 was digested with restriction enzyme KpnI to obtain the cDNA fragment covers the region from the restriction enzyme cleavage site to the stop codon. This cDNA fragment was ligated to the upstream of 3′ untranslational region DNA of pBluescript SK II (+). The DNA insert of about 450 bp in total was used as a template for preparing the template RNA. The plasmid was cleaved just after 3′ X sequence, circulated, treated with phenol/chloroform, and purified by ethanol precipitation to recover the DNA.
Using the purified DNA as a template, utilizing the promoter in pBluescript SK II (+), RNA was synthesized by the run-off method using MEGAscript RNA synthesis kit (Ambion), and T7 RNA polymerase (at 37° C. for 3 hours). DNaseI was added thereto and further incubated for 1 hour, and the template DNA was decomposed and removed to obtain the crude RNA product. The crude product was treated with phenol/chloroform, and purified by ethanol precipitation to obtain the desired template RNA. After confirming the quality of the RNA by agarose gel electrophoresis, the RNA was stored at −80° C. The RNA is a template suitable for the highly sensitive measurement of the polymerase activity. […]
The reaction was terminated by adding 10% trichloroacetic acid at 4° C. and 1% sodium diphosphate solution (150 μl) to the reaction mixture, and kept in ice for 15 min to precipitate the RNA. […] A liquid scintillation cocktail (Packard) was added to the RNA synthesized by the enzyme reaction, and the radioactivity of the RNA was measured by a liquid scintillation counter.
The activity of the HCV polymerase was calculated from the value of radioactivity in the enzyme reaction of each NS5B using the radioactivity in the enzyme reaction of NS5B591 as a standard.

NS5B544 = target: T1, NS5B544 (Hepatitis C virus genotype 1b, UniProt P26663); experiment: HCV polymerase-inhibitory activity of synthetic peptide, pre-incubated with NS5B544; format: biochemical, HCV-BK strain; conditions: final concentration of 30 μM; pre-incubated with NS5B544 at 25° C. for 30 minutes
T1 construct: residue 1 (Ser) of the NS5B, a C-terminal amino acid residue of X′ is any one of amino acid residues 531 (Lys) to 544 (Gln); made in house; host or cells: E. coli
Method: The reaction mixture with the composition mentioned below (30 μl) was reacted at 25° C. for 90 min. • Reaction mixture: the HCV polymerase obtained in Example 1 (1 μg/ml), the template RNA obtained in Example 5 (10 μg/ml), ATP (50 μM), GTP (50 μM), CTP (50 μM), UTP (2 μM), [5, 6-^3H] UTP (46 Ci/mmol (Amersham), 1.5 μCi), 20 mM Tris-HCl (pH 7.5), EDTA (1 mM), MgCl2 (5 mM), NaCl (50 mM), DTT (1 mM), BSA (0.01%).
The reaction was terminated by adding 10% trichloroacetic acid at 4° C. and 1% sodium diphosphate solution (150 μl) to the reaction mixture, and kept in ice for 15 min to precipitate the RNA. The RNA was trapped on a glass filter (Whatman, GF/C) by suction filtration. The filter was washed with a solution containing 1% trichloroacetic acid and 0.1% sodium diphosphate, then with 90% ethanol, and dried. A liquid scintillation cocktail (Packard) was added to the RNA synthesized by the enzyme reaction, and the radioactivity of the RNA was measured by a liquid scintillation counter.
Next, a synthetic peptide was prepared by a conventional method and its HCV polymerase-inhibitory activity was assessed. […] The synthetic peptide and NS5B544 were pre-incubated at 25° C. for 30 minutes, and the polymerase activity was measured in the same manner as in Example 5. […]

Substance	relative activity (%) (HCV polymerase)	inhibition of the polymerase activity (NS5B544) [%]
NS5B536: consecutive amino acid sequence 1-536 of NS5B with histidine tag	2107	–
NS5B531: consecutive amino acid sequence 1-531 of NS5B with histidine tag	2149	–
NS5B544: consecutive amino acid sequence 1-544 of NS5B with histidine tag GSHHDHHH	2014	–
KDLSGWFK [positions 546 to 551 of HCV polymerase NS5B with a Lys residue attached to both ends]	–	40 to 50
